For series [1], the target named is T1, ATF6 with N-terminal c-Myc-tag.
T1 chain: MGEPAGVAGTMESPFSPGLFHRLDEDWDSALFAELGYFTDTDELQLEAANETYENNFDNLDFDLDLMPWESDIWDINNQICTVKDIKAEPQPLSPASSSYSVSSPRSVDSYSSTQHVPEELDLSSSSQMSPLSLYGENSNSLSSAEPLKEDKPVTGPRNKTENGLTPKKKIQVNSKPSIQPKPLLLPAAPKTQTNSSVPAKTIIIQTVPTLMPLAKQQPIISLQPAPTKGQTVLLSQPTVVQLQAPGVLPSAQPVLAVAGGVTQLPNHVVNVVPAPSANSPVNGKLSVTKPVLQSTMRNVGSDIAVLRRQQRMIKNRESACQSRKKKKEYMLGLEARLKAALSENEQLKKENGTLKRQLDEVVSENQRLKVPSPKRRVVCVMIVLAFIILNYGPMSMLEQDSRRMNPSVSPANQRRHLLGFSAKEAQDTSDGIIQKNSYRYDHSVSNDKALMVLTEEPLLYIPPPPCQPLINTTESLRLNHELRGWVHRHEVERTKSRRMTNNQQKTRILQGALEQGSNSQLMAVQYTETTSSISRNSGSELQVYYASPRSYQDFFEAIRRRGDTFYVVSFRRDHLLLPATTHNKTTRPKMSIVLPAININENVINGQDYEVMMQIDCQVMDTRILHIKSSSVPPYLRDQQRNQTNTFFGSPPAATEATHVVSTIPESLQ

Series [2] has as its target T2, CREBL1 with N-terminal c-Myc-tag.
T2 chain: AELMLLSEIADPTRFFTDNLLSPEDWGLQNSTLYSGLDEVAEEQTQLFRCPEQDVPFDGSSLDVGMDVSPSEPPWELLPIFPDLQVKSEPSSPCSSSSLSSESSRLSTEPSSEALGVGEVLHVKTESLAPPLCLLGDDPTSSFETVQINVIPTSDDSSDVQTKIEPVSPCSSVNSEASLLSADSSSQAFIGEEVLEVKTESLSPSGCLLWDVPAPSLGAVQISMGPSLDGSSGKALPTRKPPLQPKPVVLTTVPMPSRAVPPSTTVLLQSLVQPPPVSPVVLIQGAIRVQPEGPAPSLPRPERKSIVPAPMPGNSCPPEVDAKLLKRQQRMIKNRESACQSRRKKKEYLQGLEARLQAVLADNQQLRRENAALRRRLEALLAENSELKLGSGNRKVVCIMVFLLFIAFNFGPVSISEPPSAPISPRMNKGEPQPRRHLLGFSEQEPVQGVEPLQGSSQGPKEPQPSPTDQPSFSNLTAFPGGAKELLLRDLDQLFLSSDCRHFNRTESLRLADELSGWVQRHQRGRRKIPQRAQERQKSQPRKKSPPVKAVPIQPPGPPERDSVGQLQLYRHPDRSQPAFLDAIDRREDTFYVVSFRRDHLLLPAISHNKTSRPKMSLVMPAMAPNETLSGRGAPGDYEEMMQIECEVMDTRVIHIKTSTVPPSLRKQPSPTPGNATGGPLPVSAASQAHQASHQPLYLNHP

In series [3] the target is T3, SHC3 (p52) with C-terminal c-Myc-tag.
T3 chain: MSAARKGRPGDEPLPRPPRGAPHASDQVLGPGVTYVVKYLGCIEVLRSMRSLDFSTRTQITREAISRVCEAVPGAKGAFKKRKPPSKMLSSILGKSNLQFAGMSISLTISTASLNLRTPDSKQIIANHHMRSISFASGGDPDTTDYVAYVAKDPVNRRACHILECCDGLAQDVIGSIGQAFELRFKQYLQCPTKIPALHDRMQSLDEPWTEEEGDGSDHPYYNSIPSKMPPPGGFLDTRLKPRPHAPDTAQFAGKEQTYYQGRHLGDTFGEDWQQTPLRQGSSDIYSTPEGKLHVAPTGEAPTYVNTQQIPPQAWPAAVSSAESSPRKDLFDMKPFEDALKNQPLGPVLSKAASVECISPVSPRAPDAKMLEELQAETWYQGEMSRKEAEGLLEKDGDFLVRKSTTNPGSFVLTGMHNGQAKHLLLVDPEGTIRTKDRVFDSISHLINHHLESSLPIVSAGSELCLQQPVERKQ

Series [4] concerns the target T4, SHC3 (p64) with C-terminal c-Myc-tag.
T4 chain: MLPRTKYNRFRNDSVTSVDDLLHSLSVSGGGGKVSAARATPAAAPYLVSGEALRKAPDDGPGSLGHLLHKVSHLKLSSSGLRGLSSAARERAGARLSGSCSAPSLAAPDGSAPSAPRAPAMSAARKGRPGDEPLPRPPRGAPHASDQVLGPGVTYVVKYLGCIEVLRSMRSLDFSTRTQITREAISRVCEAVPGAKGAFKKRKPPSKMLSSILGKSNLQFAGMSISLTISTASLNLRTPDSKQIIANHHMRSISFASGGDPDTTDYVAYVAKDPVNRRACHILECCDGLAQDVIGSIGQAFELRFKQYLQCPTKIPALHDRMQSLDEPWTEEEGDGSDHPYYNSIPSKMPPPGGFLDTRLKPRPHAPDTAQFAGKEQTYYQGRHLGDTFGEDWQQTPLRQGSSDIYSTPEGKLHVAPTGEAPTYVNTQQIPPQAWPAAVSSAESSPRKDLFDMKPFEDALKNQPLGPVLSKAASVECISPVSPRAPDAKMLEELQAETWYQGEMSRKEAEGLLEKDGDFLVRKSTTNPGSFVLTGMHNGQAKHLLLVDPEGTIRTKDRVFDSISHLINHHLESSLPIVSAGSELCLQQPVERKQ

The target in series [5] is T5, biotinylated CREBL1, N-terminal tagged (pcDNA3.1/His).
T5 chain: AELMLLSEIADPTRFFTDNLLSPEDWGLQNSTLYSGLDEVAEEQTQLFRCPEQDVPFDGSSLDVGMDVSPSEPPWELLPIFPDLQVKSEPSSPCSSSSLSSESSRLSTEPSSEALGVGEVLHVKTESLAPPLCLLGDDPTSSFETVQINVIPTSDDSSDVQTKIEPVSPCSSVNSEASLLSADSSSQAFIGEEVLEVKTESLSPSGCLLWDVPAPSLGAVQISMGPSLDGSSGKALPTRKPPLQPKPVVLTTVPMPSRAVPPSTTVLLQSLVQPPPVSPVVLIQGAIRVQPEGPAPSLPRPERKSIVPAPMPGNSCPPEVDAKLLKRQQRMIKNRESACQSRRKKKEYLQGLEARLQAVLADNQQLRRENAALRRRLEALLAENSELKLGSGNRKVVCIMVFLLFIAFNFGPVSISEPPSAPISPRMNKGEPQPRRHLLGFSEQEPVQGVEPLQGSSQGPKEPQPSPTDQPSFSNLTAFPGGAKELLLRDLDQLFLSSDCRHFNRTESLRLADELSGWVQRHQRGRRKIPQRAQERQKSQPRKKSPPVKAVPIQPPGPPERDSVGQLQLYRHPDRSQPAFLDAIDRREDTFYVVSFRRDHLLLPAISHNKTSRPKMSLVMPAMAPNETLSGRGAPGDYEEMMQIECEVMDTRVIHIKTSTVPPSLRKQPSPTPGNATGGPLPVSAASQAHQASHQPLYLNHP

Series [6] concerns the target T6, biotinylated SHC3 (p52), C-terminal tagged (pcDNA3.1/V5-His).
T6 chain: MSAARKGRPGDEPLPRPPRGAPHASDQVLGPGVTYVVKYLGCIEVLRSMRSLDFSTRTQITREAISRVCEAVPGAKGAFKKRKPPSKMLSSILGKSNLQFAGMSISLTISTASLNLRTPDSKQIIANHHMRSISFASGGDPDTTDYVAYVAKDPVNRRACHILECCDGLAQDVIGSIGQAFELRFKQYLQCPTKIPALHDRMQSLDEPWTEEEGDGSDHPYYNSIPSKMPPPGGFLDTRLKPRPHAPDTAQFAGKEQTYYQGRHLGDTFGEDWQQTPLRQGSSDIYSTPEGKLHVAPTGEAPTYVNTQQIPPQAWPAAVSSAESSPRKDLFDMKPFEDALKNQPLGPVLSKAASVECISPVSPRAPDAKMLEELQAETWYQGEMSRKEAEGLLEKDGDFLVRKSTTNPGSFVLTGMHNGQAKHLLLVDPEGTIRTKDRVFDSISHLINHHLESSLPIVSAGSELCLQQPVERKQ

For series [7], the target named is T7, biotinylated SHC3 (p64), C-terminal tagged (pcDNA3.1/V5-His).
T7 chain: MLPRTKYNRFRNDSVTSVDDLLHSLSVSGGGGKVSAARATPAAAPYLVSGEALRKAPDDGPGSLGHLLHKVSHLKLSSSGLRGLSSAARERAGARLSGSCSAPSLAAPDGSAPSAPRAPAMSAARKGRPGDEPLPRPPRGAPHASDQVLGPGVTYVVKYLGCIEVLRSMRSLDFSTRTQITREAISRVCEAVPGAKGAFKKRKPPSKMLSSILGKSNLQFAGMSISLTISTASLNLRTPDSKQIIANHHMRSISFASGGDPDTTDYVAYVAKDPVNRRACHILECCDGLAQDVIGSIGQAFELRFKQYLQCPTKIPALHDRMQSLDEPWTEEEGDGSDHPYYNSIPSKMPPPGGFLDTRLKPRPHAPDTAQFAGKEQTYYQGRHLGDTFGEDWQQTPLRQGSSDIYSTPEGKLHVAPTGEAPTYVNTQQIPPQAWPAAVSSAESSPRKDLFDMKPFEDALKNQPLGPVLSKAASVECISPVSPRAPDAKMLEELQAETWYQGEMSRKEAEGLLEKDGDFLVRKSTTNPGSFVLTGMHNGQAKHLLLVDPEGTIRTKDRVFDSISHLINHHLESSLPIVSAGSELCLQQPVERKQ

B1: mature HtrA2 with C-terminal histidine (His)-tag (protein)
chain: MAVPSPPPASPRSQYNFIADVVEKTAPAVVYIEILDRHPFLGREVPISNGSGFVVAADGLIVTNAHVVADRRRVRVRLLSGDTYEAVVTAVDPVADIATLRIQTKEPLPTLPLGRSADVRQGEFVVAMGSPFALQNTITSGIVSSAQRPARDLGLPQTNVEYIQTDAAIDFGNSGGPLVNLDGEVIGVNTMKVTAGISFAIPSDRLREFLHRGEKKNSSSGISGSQRRYIGVMMLTLSPSILAELQLREPSFPDVQHGVLIHKVILGSPAHRAGLRPGDVILAIGEQMVQNAEDVYEAVRTQSQLAVQIRRGRETLTLYVTPEVTE
As to B1, in series [1], the “in vitro protease assay: band of ATF6 on anti-Myc Western blot” value is recorded as “the band of ATF6 was significantly reduced after the reaction of active HtrA2 with ATF6 for four hours (4 h) or overnight (O/N)”. In series [2], the “in vitro protease assay: band of CREBL1 on anti-Myc Western blot” value was “the band of CREBL1 was significantly reduced after the reaction of active HtrA2 with CREBL1 for overnight (O/N)”. Besides, in series [3], the “in vitro protease assay: degradation of SHC3 (p52), anti-Myc Western blot” value is on record as “Further it was observed that SHC3 (p52) was also degraded by mature HtrA2”. The “in vitro protease assay: band of SHC3 (p64) on anti-Myc Western blot” value in series [4] is on record as “the band of SHC3 (p64) was significantly reduced after the reaction of active HtrA2 with SHC3 (p64) for four hours (4 h) or overnight (O/N)”. Also, in series [5], the “in vitro protease assay: degradation pattern of biotinylated CREBL1 (streptavidin HRP and anti-Xpress blots)” value was “remarkable reduction of the band of biotinylated CREBL1 was observed, and further, the band that was supposed to be a degradation product of CREBL1 was detected around 50 kDa”. Also, the “in vitro protease assay: degradation pattern of biotinylated SHC3 (p52) (streptavidin HRP and anti-V5 blots)” value in series [6] was “remarkable reduction of the band of biotinylated SHC3 (p52) was observed, but the band that was supposed to be a degradation product of SHC3 (p52) was not detected”. Further, the “in vitro protease assay: degradation pattern of biotinylated SHC3 (p64) (streptavidin HRP and anti-V5 blots)” value in series [7] is “remarkable reduction of the band of biotinylated SHC3 (p64) was observed, and further, the bands that were supposed to be a degradation products of SHC3 (p64) were detected around 70 kDa, 40 kDa, and 30 kDa”.

B2: mature HtrA2 (S306A) with C-terminal histidine (His)-tag (protein)
chain: MAVPSPPPASPRSQYNFIADVVEKTAPAVVYIEILDRHPFLGREVPISNGSGFVVAADGLIVTNAHVVADRRRVRVRLLSGDTYEAVVTAVDPVADIATLRIQTKEPLPTLPLGRSADVRQGEFVVAMGSPFALQNTITSGIVSSAQRPARDLGLPQTNVEYIQTDAAIDFGNAGGPLVNLDGEVIGVNTMKVTAGISFAIPSDRLREFLHRGEKKNSSSGISGSQRRYIGVMMLTLSPSILAELQLREPSFPDVQHGVLIHKVILGSPAHRAGLRPGDVILAIGEQMVQNAEDVYEAVRTQSQLAVQIRRGRETLTLYVTPEVTE
B2: the “in vitro protease assay: degradation of ATF6, anti-Myc Western blot” value in series [1] was “the degradation of CREBL1, ATF6, and SHC3 (p64) by inactive HtrA2 (mature HtrA2 (S306A)) was not observed”. Further, the “in vitro protease assay: degradation of CREBL1, anti-Myc Western blot” value in series [2] is “the degradation of CREBL1, ATF6, and SHC3 (p64) by inactive HtrA2 (mature HtrA2 (S306A)) was not observed”. The “in vitro protease assay: degradation of SHC3 (p52), anti-Myc Western blot” value in series [3] is “the degradation of SHC3 (p52) by inactive HtrA2 (mature HtrA2 (S306A)) was not observed as well”. Besides, the “in vitro protease assay: degradation of SHC3 (p64), anti-Myc Western blot” value in series [4] is “the degradation of CREBL1, ATF6, and SHC3 (p64) by inactive HtrA2 (mature HtrA2 (S306A)) was not observed”. Besides, the “in vitro protease assay: degradation of biotinylated CREBL1 (streptavidin HRP blot)” value in series [5] is “the degradation of CREBL1 by inactive HtrA2 (mature HtrA2 (S306A)) was not observed, and the band around 50 kDa as above was not detected”. Also, the “in vitro protease assay: degradation of biotinylated SHC3 (p52) (streptavidin HRP blot)” value in series [6] is “the degradation of SHC3 (p52) by inactive HtrA2 (mature HtrA2 (S306A)) was not observed”. The “in vitro protease assay: degradation of biotinylated SHC3 (p64) (streptavidin HRP blot)” value in series [7] is “the degradation of SHC3 (p64) by inactive HtrA2 (mature HtrA2 (S306A)) was not observed, and the bands around 70 kDa, 40 kDa and 30 kDa as above were not detected”.

For the origin of these results see patent US20060264363.
